Data as given in paper PMC5840397 (2018).

Biological target: T1, C-terminally His-tagged human ECRG4(32–148) (human, UniProt Q9H1Z8 32-148)
T1 chain: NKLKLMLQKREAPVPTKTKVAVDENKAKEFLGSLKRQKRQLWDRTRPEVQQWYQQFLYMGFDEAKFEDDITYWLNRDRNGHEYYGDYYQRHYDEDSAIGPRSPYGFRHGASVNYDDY
Experiment: SPR

Kd: 14.2 nM
B1: 2 × CTLD–Fc (two human LOX-1 CTLDs in tandem, Fc-fused) (Fc fusion)
chain: not shown
